Measured values taken from PMC8629256, “Structural and functional studies of D109A human αB-crystallin contributing to the development of cataract and cardiomyopathy diseases” (PLoS ONE, 2021).
Positions count from the first letter of the chain named. In names and notes the source's numbering stands.

B1: wild-type human αB-crystallin (natural protein)
chain: MDIAIHHPWIRRPFFPFHSPSRLFDQFFGEHLLESDLFPTSTSLSPFYLRPPSFLRAPSWFDTGLSEMRLEKDRFSVNLDVKHFSPEELKVKVLGDVIEVHGKHEERQDEHGFISREFHRKYRIPADVDPLTITSSLSSDGVLTVNGPRKQVSGPERTIPITREEKPAVTAAPKK
notes: human αB-crystallin (HSPB5), 175 amino acids, coded by CRYAB; cDNA cloned in pET-28b(+); Polydisperse oligomer; 32 subunits is the number worked out for the majority species in AUC (about 650 kDa); also called heat shock protein β5; HSPB5; source: E. coli BL21 (DE3), purified (DEAE-cellulose anion exchange in urea buffer, dialysed against water); copies: 32
B2: D109A mutant human αB-crystallin (natural protein)
chain: B1 chain with D109A
notes: human αB-crystallin (HSPB5) with the patient mutation D109A (cDNA 326 A>C), made by site-directed mutagenesis of the wild-type cDNA in pET-28b(+); Polydisperse oligomer; 53 subunits is the number worked out for the majority species in AUC (about 1,060 kDa); larger ensembles of 1500-3000 kDa are also seen; The mutation is reported in patients with myofibrillar myopathy; No tag is named; see the …

Target: the molecule itself
Assay: AUC; sedimentation velocity, 20 °C, 40,000 rpm, 40 mM sodium phosphate, 100 mM NaCl, 1 mM EDTA, 3 mM NaN3, pH 7.0; wild type 1.0 mg/mL, D109A 0.5 mg/mL; c(s) and c(M) by SEDFIT; run after dialysis and again after 24 h at 20 °C; size of the oligomer

| Protein | stoichiometry N |
| --- | --- |
| B1 | 32 subunits |
| B2 | 53 subunits |
